Results from the Immune Epitope Database (IEDB).

Assays:
[1] = target: HLA-B*58:01; assay: IEDB peptide-MHC binding, purified MHC/direct/fluorescence; filed as Kd, often an IC50 or EC50 that approximates it; ≥ and ≤ were set here for values at or beyond the usual limits of such assays
[2] = target: HLA-A*01:01; assay: as above
[3] = target: HLA-A*69:01; assay: as above
[4] = target: HLA-A*31:01; assay: as above
[5] = target: HLA-B*07:02; assay: as above
[6] = target: HLA-B*15:01; assay: as above
[7] = target: HLA-A*03:01; assay: as above
[8] = target: HLA-B*44:02; assay: as above; conditions: source organism: Vibrio parahaemolyticus
[9] = target: HLA-A*11:01; assay: as above
[10] = target: HLA-B*18:01; assay: as above
[11] = target: HLA-B*27:05; assay: as above
[12] = target: HLA-B*46:01; assay: as above
[13] = target: HLA-A*02:01; assay: as above
[14] = target: HLA-A*24:02; assay: as above; conditions: source organism: Vibrio parahaemolyticus
[15] = target: HLA-B*40:01; assay: as above
[16] = target: HLA-A*26:01; assay: as above
[17] = target: HLA-B*08:02; assay: as above; conditions: source organism: Vibrio parahaemolyticus RIMD 2210633
[18] = target: HLA-B*08:01; assay: IEDB peptide-MHC binding, purified MHC/competitive/fluorescence; filed as Kd, often an IC50 or EC50 that approximates it; ≥ and ≤ were set here for values at or beyond the usual limits of such assays
[19] = target: HLA-B*51:01; assay: as above
[20] = target: HLA-B*57:01; assay: IEDB peptide-MHC binding, purified MHC/direct/fluorescence; filed as Kd, often an IC50 or EC50 that approximates it; ≥ and ≤ were set here for values at or beyond the usual limits of such assays; conditions: source organism: Camelpox virus M-96
[21] = target: HLA-B*48:01; assay: as above; conditions: source organism: Camelpox virus M-96
[22] = target: HLA-A*02:06; assay: IEDB peptide-MHC binding, purified MHC/competitive/fluorescence; filed as Kd, often an IC50 or EC50 that approximates it; ≥ and ≤ were set here for values at or beyond the usual limits of such assays; conditions: source organism: Vaccinia virus WR
[23] = target: HLA-B*15:17; assay: as above; conditions: source organism: Vaccinia virus WR
[24] = target: HLA-B*15:01; assay: as above
[25] = target: HLA-B*18:01; assay: as above
[26] = target: HLA-A*30:01; assay: as above; conditions: source organism: Vaccinia virus WR
[27] = target: HLA-B*35:01; assay: as above
[28] = target: HLA-A*68:02; assay: as above; conditions: source organism: Vaccinia virus WR
[29] = target: HLA-A*31:01; assay: as above; conditions: source organism: Vaccinia virus WR
[30] = target: HLA-A*03:01; assay: as above
[31] = target: HLA-A*02:03; assay: IEDB peptide-MHC binding, purified MHC/direct/fluorescence; filed as Kd, often an IC50 or EC50 that approximates it; ≥ and ≤ were set here for values at or beyond the usual limits of such assays; conditions: source organism: Zaire ebolavirus
[32] = target: HLA-A*68:02; assay: as above; conditions: source organism: Zaire ebolavirus
[33] = target: HLA-A*02:12; assay: as above; conditions: source organism: Zaire ebolavirus
[34] = target: HLA-A*02:11; assay: as above; conditions: source organism: Zaire ebolavirus
[35] = target: HLA-A*02:16; assay: as above; conditions: source organism: Zaire ebolavirus
[36] = target: HLA-A*02:19; assay: as above; conditions: source organism: Zaire ebolavirus
[37] = target: HLA-B*58:01; assay: IEDB peptide-MHC binding, purified MHC/competitive/fluorescence; filed as Kd, often an IC50 or EC50 that approximates it; ≥ and ≤ were set here for values at or beyond the usual limits of such assays
[38] = target: HLA-A*69:01; assay: as above; conditions: source organism: Zaire ebolavirus
[39] = target: HLA-B*27:03; assay: as above; conditions: source organism: Zaire ebolavirus
[40] = target: HLA-B*39:01; assay: as above; conditions: source organism: Zaire ebolavirus
[41] = target: HLA-B*46:01; assay: as above; conditions: source organism: Zaire ebolavirus
[42] = target: HLA-A*02:01; assay: as above; conditions: source organism: Zaire ebolavirus
[43] = target: HLA-A*26:01; assay: as above
[44] = target: HLA-A*01:01; assay: as above; conditions: source organism: Salmonella enterica subsp. enterica serovar Typhi
[45] = source organism: Vibrio parahaemolyticus
[46] = source organism: Yersinia pestis Antiqua
[47] = source organism: Camelpox virus M-96
[48] = source organism: Vaccinia virus WR
[49] = source organism: Shigella flexneri 5 str. 8401
[50] = source organism: Bacillus anthracis str. A2012
[51] = source organism: Zaire ebolavirus
[52] = source organism: Salmonella enterica subsp. enterica serovar Typhi
[53] = source organism: Yersinia pestis Nepal516

ALSMGINTV was tested, and the Kd [1, 45] was at least 20 µM, the Kd [2, 45] was at least 20 µM and the Kd [3, 45] was 2 µM. It also gave a Kd [4, 45] of at least 20 µM, a Kd [5, 45] of at least 20 µM and a Kd [6, 45] of at least 20 µM. The Kd [7, 45] was at least 20 µM, the Kd [8] was at least 20 µM and the Kd [9, 45] was at least 20 µM. It also gave a Kd [10, 45] of at least 20 µM, a Kd [11, 45] of at least 20 µM and a Kd [12, 45] of at least 20 µM. It also gave a Kd [13, 45] of 0.0356 µM, a Kd [14] of at least 20 µM and a Kd [15, 45] of at least 20 µM. For the same sequence, the Kd ([16]; source organism: Vibrio parahaemolyticus RIMD 2210633) was at least 20000 nM, the Kd [17] was at least 20 µM and the Kd ([18]; source organism: Vibrio parahaemolyticus K5030) was at least 20000 nM.
EAKLFFQVI was tested, and the Kd [19, 46] was 726 nM and the Kd [18, 46] was 755 nM.
With FVHTLLKTY the Kd [1, 47] was at least 20 µM, the Kd [2, 47] was at least 20 µM and the Kd [3, 47] was at least 20 µM. For the same sequence, the Kd [4, 47] was at least 20 µM, the Kd [7, 47] was at least 20 µM and the Kd [9, 47] was at least 20 µM. The Kd [11, 47] was at least 20 µM, the Kd [20] was at least 20 µM and the Kd [21] was at least 20 µM. The Kd [13, 47] was at least 20 µM, the Kd [15, 47] was at least 20 µM and the Kd [16, 47] was 73.3 nM. It also gave a Kd [22] of 2970 nM, a Kd [23] of 55.4 nM and a Kd [24, 48] of 308 nM. The Kd [25, 48] was at least 20 µM and the Kd [26] was at least 20 µM.
For LMLADHPEY, the Kd ([6]; source organism: Mycobacterium tuberculosis) was 0.313 µM and the Kd ([27]; source organism: Mycobacterium tuberculosis C) was 18.6 nM.
With LTFLHTLYK the Kd [1, 47] was at least 20 µM, the Kd [2, 47] was at least 20 µM and the Kd [3, 47] was at least 20 µM. For the same sequence, the Kd [5, 47] was at least 20 µM, the Kd [6, 47] was at least 20 µM and the Kd [7, 47] was 0.16 µM. For the same sequence, the Kd [9, 47] was 0.104 µM, the Kd [10, 47] was at least 20 µM and the Kd [11, 47] was at least 20 µM. For the same sequence, the Kd [20] was at least 20 µM, the Kd [21] was at least 20 µM and the Kd [12, 47] was at least 20 µM. For the same sequence, the Kd [13, 47] was at least 20 µM, the Kd [15, 47] was at least 20 µM and the Kd [22] was 1090 nM. The Kd [28] was 1090 nM, the Kd [29] was 224 nM and the Kd [23] was 226 nM.
With MFAAGLILY the Kd [24, 49] was at least 20000 nM, the Kd [30, 49] was at least 20 µM and the Kd [27, 49] was 1060 nM.
With MGMNAYFAY the Kd [24, 50] was 61.2 nM and the Kd [27, 50] was at most 0.1 nM.
For VLMKQIPIW, the Kd [31] was at least 20 µM, the Kd [32] was at least 20 µM and the Kd [33] was at least 20 µM. For the same sequence, the Kd [7, 51] was at least 20 µM, the Kd [34] was at least 20 µM and the Kd [35] was at least 20 µM. The Kd [36] was at least 20 µM, the Kd [37, 51] was 1.3 nM and the Kd [38] was at least 20 µM. The Kd [24, 51] was at least 20000 nM, the Kd [25, 51] was at least 20 µM and the Kd [19, 51] was at least 20000 nM. It also gave a Kd [39] of at least 20 µM, a Kd [40] of at least 20 µM and a Kd [41] of at least 20 µM. The Kd [42] was at least 20 µM and the Kd [43, 51] was at least 20000 nM.
VSFLISWSL was tested, and the Kd [37, 50] was 2610 nM.
In the case of VTIGNAYIY, the Kd [37, 52] is reported as 62.5 nM, the Kd [44] is reported as 3.5 µM and the Kd [30, 52] is reported as at least 20 µM. The Kd [43, 52] was 1050 nM.
VVNDFTVSY was tested, and the Kd [30, 53] was 0.122 µM, the Kd [27, 53] was 3.5 nM and the Kd [43, 53] was 225 nM.
